Test results: patent US20100068186A1 (published 2010)
Numbering of substitutions follows the chain as printed.

T1: catalytic sub-unit of the Telomerase protein peptide on HLA-A*02:01 (human)
T1 peptide: ILAKFLHWL

B1: TCR of SEQ ID NOs 15 and 23 (TCR, V domains shown)
Valpha: GIQVEQSPPDLILQEGANSTLRCNFSDSVNNLQWFHQNPWGQLINLFYIPSGTKQNGRLSATTVATERYSLLYISSSQTTDSGVYFCAVDSATTGMFGYIFGTGTRLKVLA
Vbeta: NAGVTQTPKFQVLKTGQSMTLQCAQDMNHEYMSWYRQDPGMGLRLIHYSVGAGITDQGEVPNGYNVSRSTTEDFPLRLLSAAPSQTSVYFCGIQPQGTEAFFGQGTRLTVV
B2: TCR of SEQ ID NOs 15 and 66 (TCR, V domains shown)
Valpha: B1 Valpha
Vbeta: B1 Vbeta with V50R, G51W, A52V, I54D
B3: TCR of SEQ ID NOs 15 and 68 (TCR, V domains shown)
Valpha: B1 Valpha
Vbeta: B1 Vbeta with V50I, G51W, A52E, G53F, I54E
B4: TCR of SEQ ID NOs 15 and 70 (TCR, V domains shown)
Valpha: B1 Valpha
Vbeta: B1 Vbeta with V50I, G51C, A52W, I54C, I93V
B5: TCR of SEQ ID NOs 15 and 69 (TCR, V domains shown)
Valpha: B1 Valpha
Vbeta: B1 Vbeta with V50I, G51W, A52E, G53F, I54E, I93V
B6: TCR of SEQ ID NOs 21 and 65 (TCR, V domains shown)
Valpha: B1 Valpha with T94S
Vbeta: B1 Vbeta with V50R, G51W, A52V, I54D, I93V

Molecular target: T1, catalytic sub-unit of the Telomerase …
Assay: Kd or kinetics

| Binder | binding result |
| --- | --- |
| B1 | recognises |
| B2 | recognises |
| B3 | recognises |
| B4 | recognises |
| B5 | recognises |
| B6 | recognises |
